B1: Fab of mAb 15-3 (Fab, V domains shown)
VH: QVQLQESGPGVVKPSETLSLSCGVSSASILGGYFFWSWIRQSPGKGLEWMGGVYTNSDTTNYNPSLKSRVAISKDTSVNQFSLRLTSVTAADTAVYYCTARATVHSSASYYYGGRIDVWGPGLLVTVSS
VL: DIQMTQSPSSLSASLGDRVTVTCRASQGINRDLSWFQQKPGKAPTLLIYEVSNLQTGVSSRFSGSGSGTDFTLTISSLQPEDVATYYCQQDYDFPLTFGGGTKVDLK
B2: Fab of mAb 7-2 (Fab, V domains shown)
VH: QVQLQASGPGVVKPSETLSLTCAVSGDYVRRGYFYWSWVRQSPGKGLEWIGGIYSNSDTTNYNPSLKSRLTISKDTSNNQFFLTLSSVTAADTAVYYCTSRAKIYSSGSYYAGGRIDVWGPGVQVIVSS
VL: DVHMTQSPSSLSASLGDSVTVTCRASQGINKDLSWFQQKPGEAPTLLIYDASTLQTGVSSRFSGSGSGTDFTLTISNLQPEDVATYYCQQDYDFPLTFGGGTKVDLK
B3: Fab of mAb 6-6 (Fab, V domains shown)
VH: QVQLQVSGPGVVKPSETLSLTCSVSGDSFRRAYFFWSWVRQPPGKGLEWMGGIYTNSESTTYNPSLESRISVSKDASKNQFSLRLTSVTAADTAVYYCTSRAEVYFSGGYYSGGRIDVWGPGVLVTVSS
VL: DIQMTQSPSSLSASVGDRVTVTCRASQDINKDLSWFQQKPGEAPTLLIFTASTLQTGVSSRFSGSGSGTSFSLTISSLQPEDVATYFCQQDHSFPLTFGGGTRVDLQ

The target of this test is HIV-1 BG505.DS.SOSIP.S613A Env trimer (HIV-1 (strain BG505)). In words: BLI; Trimer-Fab method, Octet RED384, 25 °C, 1% BSA in PBS: trimer (100 nM) held by RM19R-human Fc IgG on anti-human Fc capture tips; Fab as analyte in serial dilutions; global fit to a 1:1 Langmuir model. In general terms: BLI is a label-free optical method that tracks binding on a fibre tip over time.
Usually Kd stands for the concentration at which binding is half-saturated. Low readings indicate a tighter complex, high ones a looser complex. In general, koff refers to a measure of how fast the partners let go of each other. A lower koff goes with a long-lived complex. A word on the kon: it is a measure of how fast the partners come together. Lower therefore signals slow association. Consider B1, for which the Kd stood at 0.104 nM, the off-rate constant (koff) came to 7.98e-06 s⁻¹ and the association rate constant (kon) was 76500 M⁻¹ s⁻¹.

Regarding B2, the Kd was 0.774 nM, the koff came to 0.000109 s⁻¹ and the kon came out at 141000 M⁻¹ s⁻¹.

B3 gave a Kd of 17 nM, an off-rate (koff) of 0.00304 s⁻¹ and a kon of 179000 M⁻¹ s⁻¹.

For the origin of these results see article PMC11003769.
